Laboratory results from publication PMC2211892.

Molecular target: StcE′ E435D-His (Escherichia coli O157:H7) (UniProt O82882)
Experiment: flow cytometry on cells

B1: C1 esterase inhibitor (C1-INH), purified (natural protein)
chain: NPNATSSSSQDPESLQDRGEGKVATTVISKMLFVEPILEVSSLPTTNSTTNSATKITANTTDEPTTQPTTEPTTQPTIQPTQPTTQLPTDSPTQPTTGSFCPGPVTLCSDLESHSTEAVLGDALVDFSLKLYHAFSAMKKVETNMAFSPFSIASLLTQVLLGAGENTKTNLESILSYPKDFTCVHQALKGFTTKGVTSVSQIFHSPDLAIRDTFVNASRTLYSSSPRVLSNNSDANLELINTWVAKNTNNKISRLLDSLPSDTRLVLLNAIYLSAKWKTTFDPKKTRMEPFHFKNSVIKVPMMNSKKYPVAHFIDQTLKAKVGQLQLSHNLSLVILVPQNLKHRLEDMEQALSPSVFKAIMEKLEMSKFQPTLLTLPRIKVTTSQDMLSIMEKLEFFDFSYDLNLCGLTEDPDLQVSAMQHQTVLELTETGVEAAAASAISVARTLLVFEVQQPFLFVLWDQQHKFPVFMGRVYDPRA
  fold level of C1-INH on erythrocyte surfaces against StcE′-His: 22 fold
